Assay results taken from the RNAGym collection of RNA variant scans (doi:10.7554/elife.90254).

B1: OR4K15 (parent)
chain: GUUAACGGUCAUAGGCCAUGGAAACUAGGAGCACCAUUUCGCUGCCAGUGAAGAAAUGAACAAAGAAAAUCUGGGCCAGGCAGGCAUCAAAAGAAAUAGUCUUGCGCUCAACCAGAAAGUCUGUAAUCAUUUUAAGGGUA

Variants of: B1
Test: self-cleavage, relative activity (ratio to wild type); higher = more cleavage; in vitro, sequencing; the parent is a self-cleaving ribozyme

| Variant | self-cleavage |
| --- | --- |
| GUUAACGGUCAUAGGCCAUGGAAACUAGGAGCACCAUUUCGCUGCCAGUGAAGAAAUGAACAAAGAAAAUCUGGGCCAGGCGGGCAUCAAAAGAAAUAGUCUUGCGCUCAACCAGAAAGUCCGUAAUCAUUUUAAGGGUA [A82G U122C] | 0.24 |
| GUUAACGGUCAUAGGUCAUGGAAACUAGGAGCACCAUCUCGCUGCCAGUGAAGAAAUGAACAAAGAAAAUCUGGGCCAGGCAGGCAUCAAAAGAAAUAGUCUUGCGCUCAACCAGAAAGUCUGUAAUCAUUUUAAGGGUA [C16U U38C] | 0.76 |
| GUUAACGGUCAUAGGCCAUGGAAACUAGGGGCACCAUUUCGCUGCCAGUGAAGAAAUGAACAAAGAAAAUCUGGGCCAGGCAGGCAUCAAAAGAAAUAGUCUUGCGCUCAACCAGAAAGACUGUAAUCAUUUUAAGGGUA [A30G U120A] | 1.3 |
| GUUAACGGUCAUAGGCCAUGGAAACUAGGAGCACCAUUUCGCUGCCAGUGAAGAAAUGAACAAAGGAAAUCUGGGCCAGGCAGGCAUCAAAAGAAAUAGUCUUGCGCUCAACCAGAAAGUCUGUAAUCGUUUUAAGGGUA [A66G A129G] | 0.85 |
| GUUAACGGUCAUAGGCCAUGGAAACUAGGAGCACCACUUCGCUGCCAGUGAAGAAGUGAACAAAGAAAAUCUGGGCCAGGCAGGCAUCAAAAGAAAUAGUCUUGCGCUCAACCAGAAAGUCUGUAAUCAUUUUAAGGGUA [U37C A56G] | 0.73 |
| GUUAACGGUCAUAGGCCAUGGAAACUAGGAGCACCAUUUCGCUGCCAGUGAAGAAAUGAACAAAGAAGAUCUGGGCCAGGCAGGCCUCAAAAGAAAUAGUCUUGCGCUCAACCAGAAAGUCUGUAAUCAUUUUAAGGGUA [A68G A86C] | 0.72 |
| GUUAACGGUCAUAGGCCAUGGAAACUAGGAGCACCAUUUCGCUGCCAGUGAAGAAAUGAACAAAGAAAAUCUGGGCCGGGCAGGCAUCAAAAGAAAUAGUCUUGCGCUCAACCUGAAAGUCUGUAAUCAUUUUAAGGGUA [A78G A114U] | 0.01 |
| GUUAACGGUCAUAGGCCAUGGAAACUAGGAGCACCAUUUCGCUGCCAGUGAGGAAAUGAACAAAGAAAGUCUGGGCCAGGCAGGCAUCAAAAGAAAUAGUCUUGCGCUCAACCAGAAAGUCUGUAAUCAUUUUAAGGGUA [A52G A69G] | 0.65 |
| GUUAACGGUCAUAGGCCAUGGAAACUAGGAGCACCAUUUCGCUGCCAGUGAAGAAAUGAACAAAGAAAAUCUGAGCCGGGCAGGCAUCAAAAGAAAUAGUCUUGCGCUCAACCAGAAAGUCUGUAAUCAUUUUAAGGGUA [G74A A78G] | 0.21 |
| GUUAACGGUCAUAGGCCAUGGAAACUAGGAGCACCCUUUCGCUGCCAGUGAAGAAAUGAACAAAGUAAAUCUGGGCCAGGCAGGCAUCAAAAGAAAUAGUCUUGCGCUCAACCAGAAAGUCUGUAAUCAUUUUAAGGGUA [A36C A66U] | 1.68 |
| GUUAACGGUCAUAGGCCAUGGAAACUAGGAGCACCACUUCGCUGCCAGUGAAGAAAUGAACAAAGAAAUUCUGGGCCAGGCAGGCAUCAAAAGAAAUAGUCUUGCGCUCAACCAGAAAGUCUGUAAUCAUUUUAAGGGUA [U37C A69U] | 1.6 |
| GUUAACAGUCAUAGGCCAUGGAAACUAGGAGCACCAUUUCGCUGCCAGUGAAGGAAUGAACAAAGAAAAUCUGGGCCAGGCAGGCAUCAAAAGAAAUAGUCUUGCGCUCAACCAGAAAGUCUGUAAUCAUUUUAAGGGUA [G7A A54G] | 0.81 |
| GUUAACGGUCAUAGGCCAUGGAAAAUAGGAGCACCAUUUCGCUGCCAGUGAAGAAAUGAACAAAGAAAAUCUGGGCCAGGCAGGCAUCAAAAGAAAUAGUCUUGCGCUCAACCAGAAAGUCUGUAAUCAUUUUAGGGGUA [C25A A135G] | 1.61 |
| GUUAACGGUCAUAGGCCAUGGAAACUAGGAGCACCAUUUCGCUGCCAGUGAAGAAAUGAACAAAGAAAAUCUGGGCCAGGCAGGCAUCAAAAGCAAUAGCCUUGCGCUCAACCAGAAAGUCUGUAAUCAUUUUAAGGGUA [A94C U100C] | 2.31 |
| GUUAACGGUCAUAGGCCAUGGAAACUAGGAGCACCAUUUCGCCGCCAGUGAAGAAAUGAACAAAGAAAAUCUGGGCCCGGCAGGCAUCAAAAGAAAUAGUCUUGCGCUCAACCAGAAAGUCUGUAAUCAUUUUAAGGGUA [U43C A78C] | 0.29 |
| GUUAACGGUCAUAGGCCAUGGAAACUAGGUGCACCAUUUCGCUGCCAGUGAAGAAAUGAACAAAGAAAAUCUGGGCCAGGCAGGCAUCAAAAGAAAUAGUAUUGCGCUCAACCAGAAAGUCUGUAAUCAUUUUAAGGGUA [A30U C101A] | 0.25 |
| GUUAACGGUCAUAGGCCAUGGAAACUAGGAGCACCAUUUCGCUGCCAGUGAAGAAACGAACAAAGAAAAUCUGGGCCAGGCAGGCAUCAUAAGAAAUAGUCUUGCGCUCAACCAGAAAGUCUGUAAUCAUUUUAAGGGUA [U57C A90U] | 1.51 |
| GUUAACGGUCAUGGGCCAUGGAAACUAGGAGCACCAUUUCGCUGCCAGUGAAGAAAUGAACAAAGAAAAUCUGGGCCAGGCAGGCAUCAAAAGAAAUAGUCUUGCGCUCAACCAGAAAGCCUGUAAUCAUUUUAAGGGUA [A13G U120C] | 0.6 |
| GUUAACGGUCAUAGGCCAUGGAAACUAGGAGCACCAUUUCGCUGCCAGUGAAGAAAUGAACAAGGAAAAUCUGGGCCAGGCAGGCAUCAAAAGAAAUAGUCUUGCGCUCAACCAGAAAGUCUGUAAUCCUUUUAAGGGUA [A64G A129C] | 1.8 |
| GUUAACGGUCAUAGUCCAUGGAAACUAGGAGCACCAUUUCGCUGCCAGUGAAGAAAUGAACAAAGAAAAUCUGGGCCAGGCAGGCAACAAAAGAAAUAGUCUUGCGCUCAACCAGAAAGUCUGUAAUCAUUUUAAGGGUA [G15U U87A] | 1.44 |
| GUUAACGGUCAUAGGCCAUGGAAACUAGGAGCACCAUUUCGCUGCCAGUGAAGAAAUGAACAAAGAAAAUCUGGGCCAGGCAGGCAUCAAAAGAAAUAGGCUUGCGCUCAACCAGAAAGUCUGUAGUCAUUUUAAGGGUA [U100G A126G] | 1.02 |
